Data set [1] concerns the target human metapneumovirus (HMPV) strain CAN97-83 M2-1 protein (human metapneumovirus strain CAN97-83). In words: Gdm.HCl-induced equilibrium denaturation.
The data set “SEC” deals with the molecule itself. In words: SEC.

Broadly, the stoichiometry N is a count of units in the complex or per binding partner.

Residue numbers refer to the chain shown, from its start. Numbers in names are those of the source.

Regarding “human metapneumovirus (HMPV) strain CAN97-83 M2-1 protein (natural protein)”, the stoichiometry N in data set [1] turned out to be 4.

B1: H25A RSV-M2-1 (natural protein)
chain: MSRRNPCKFEIRGHCLNGKRCHFSANYFEWPPHALLVRQNFMLNRILKSMDKSIDTLSEISGAAELDRTEEYALGVVGVLESYIGSINNITKQSACVAMSKLLTELNSDDIKKLRDNEELNSPKIRVYNTVISYIESNRKNNKQTIHLLKRLPADVLKKTIKNTLDIHKSITINNPKESTVSDTNDHAKNNDTT
For B1, the binding result in the data set “SEC” is on record as “binds”.

B2: H25C RSV-M2-1 (natural protein)
chain: B1 chain with A25C
For B2, in “SEC”, the binding result is “binds”.
